To fix the notation:
B1: DART-25 (bispecific antibody)
chain 1: QLVLTQSPSASASLGSSVKLTCTLSSGHKTDTIDWYQQQPGKAPRYLMKLEGSGSYNKGSGVPDRFGSGSSSGADWYLTISSLQSEDEADYYCGTDYPGNYLFGGGTQLTVLGGGGSGGGGEVQLVESGGGLVQPGGSLRLSCAASGFTFSTYAMNWVRQAPGKGLEWVGRIRSKYNNYATYYADSVKGRFTISRDDSKNSLYLQMNSLKTEDTAVYYCVRHGNFGNSYVSWFAYWGQGTLVTVSSGGCGGGKVAALKEKVAALKEKVAALKEKVAALKE
chain 2: QAVVTQEPSLTVSPGGTVTLTCRSSTGAVTTSNYANWVQQKPGQAPRGLIGGTNKRAPWTPARFSGSLLGGKAALTITGAQAEDEADYYCALWYSNLWVFGGGTKLTVLGGGGSGGGGQEQLVESGGGLVQPGGSLRLSCAASGFTFSDYYMSWVRQAPGKGLEWVATIYPSSGKTYYADSVKGRLTISSDNAKDSLYLQMNSLRAEDTAVYYCTRDSYADDAALFDIWGQGTTVTVSSGGCGGGEVAALEKEVAALEKEVAALEKEVAALEK
notes: ROR1×CD3 two chain diabody
B2: DART-23 (bispecific antibody)
chain 1: B1 chain 1
chain 2: B1 chain 2 with L186F, T215A
B3: DART-2 (bispecific antibody)
chain 1: B1 chain 1
chain 2: B1 chain 2 with L186F, D195N, T215A
notes: ROR1×CD3 two chain diabody; VL(2): R71W; VH: parental
B4: DART-30 (bispecific antibody)
chain 1: B1 chain 1 with S70I
chain 2: B1 chain 2
notes: ROR1×CD3 two chain diabody; VL(12): S66I/R71W; VH(7): F67L N76D A93T
B5: DART-16 (bispecific antibody)
chain 1: B1 chain 1 with W76R
chain 2: B1 chain 2 with L186F, D195N
notes: ROR1×CD3 two chain diabody; VL: parental; VH(3): A93T
B6: DART-14 (bispecific antibody)
chain 1: B1 chain 1 with W76R
chain 2: B1 chain 2 with D195N, T215A
notes: ROR1×CD3 two chain diabody; VL: parental; VH(1): F67L
B7: DART-17 (bispecific antibody)
chain 1: B1 chain 1 with W76R
chain 2: B1 chain 2 with L186F, D195Y, T215A
notes: ROR1×CD3 two chain diabody; VL: parental; VH(4): N76Y
B8: DART-13 (bispecific antibody)
chain 1: B1 chain 1 with S70I, Y97N
chain 2: B1 chain 2 with L186F, D195N, T215A
notes: ROR1×CD3 two chain diabody; VL(13): S66I/R71W/Y92N; VH: parental
B9: DART-20 (bispecific antibody)
chain 1: B1 chain 1
chain 2: B1 chain 2 with L186F, D195N
notes: ROR1×CD3 two chain diabody; VL(2): R71W; VH(3): A93T
B10: DART-4 (bispecific antibody)
chain 1: B1 chain 1 with S16G, W76R
chain 2: B1 chain 2 with L186F, D195N, T215A
notes: ROR1×CD3 two chain diabody; VL(4): S17G; VH: parental
B11: DART-10 (bispecific antibody)
chain 1: B1 chain 1 with W76R, Y97N
chain 2: B1 chain 2 with L186F, D195N, T215A
notes: ROR1×CD3 two chain diabody; VL(10): Y92N; VH: parental
B12: DART-3 (bispecific antibody)
chain 1: B1 chain 1 with K49N, W76R
chain 2: B1 chain 2 with L186F, D195N, T215A
notes: ROR1×CD3 two chain diabody; VL(3): K49N; VH: parental
B13: DART-29 (bispecific antibody)
chain 1: B1 chain 1 with Y97N
chain 2: B1 chain 2
notes: ROR1×CD3 two chain diabody; VL(11): R71W/Y92N; VH(7): F67L/N76D/A93T
B14: DART-24 (bispecific antibody)
chain 1: B1 chain 1 with W76R, Y97N
chain 2: B1 chain 2 with L186F, D195N
notes: ROR1×CD3 two chain diabody; VL(10): Y92N; VH(3): A93T
B15: DART-12 (bispecific antibody)
chain 1: B1 chain 1 with S70I
chain 2: B1 chain 2 with L186F, D195N, T215A
notes: ROR1×CD3 two chain diabody; VL(12): S66I/R71W; VH: parental
B16: DART-33 (bispecific antibody)
chain 1: QLVLTQSPSASASLGSSVKLTCTLSSGHKTDTIDWYQQQPGKAPRYLMKLEGSGSYNKGSGVPDRFSGSSSGADWYLTISSLQSEDEADYYCGTDYPGNYLFGGGTQLTVLGGGGSGGGGEVQLVESGGGLVQPGGSLRLSCAASGFTFSTYAMNWVRQAPGKGLEWVGRIRSKYNNYATYYADSVKGRFTISRDDSKNSLYLQMNSLKTEDTAVYYCVRHGNFGNSYVSWFAYWGQGTLVTVSSGGCGGGKVAALKEKVAALKEKVAALKEKVAALKE
chain 2: B1 chain 2 with V155I, V182A
notes: ROR1×CD3 two chain diabody
B17: DART-26 (bispecific antibody)
chain 1: B1 chain 1 with Y97N
chain 2: B1 chain 2 with L186F, D195N
notes: ROR1×CD3 two chain diabody; VL(11): R71W/Y92N; VH(3): A93T
B18: DART-11 (bispecific antibody)
chain 1: B1 chain 1 with Y97N
chain 2: B1 chain 2 with L186F, D195N, T215A
notes: ROR1×CD3 two chain diabody; VL(11): R71W/Y92N; VH: parental
B19: DART-5 (bispecific antibody)
chain 1: B1 chain 1 with N57S, W76R
chain 2: B1 chain 2 with L186F, D195N, T215A
notes: ROR1×CD3 two chain diabody; VL(5): N54S; VH: parental
B20: DART-6 (bispecific antibody)
chain 1: B1 chain 1 with S70I, W76R
chain 2: B1 chain 2 with L186F, D195N, T215A
notes: ROR1×CD3 two chain diabody; VL(6): S66I; VH: parental
B21: DART-22 (bispecific antibody)
chain 1: B1 chain 1
chain 2: B1 chain 2 with D195N, T215A
notes: ROR1×CD3 two chain diabody; VL(2): R71W; VH(1): F67L
B22: DART-31 (bispecific antibody)
chain 1: B1 chain 1 with S70I, Y97N
chain 2: B1 chain 2
notes: ROR1×CD3 two chain diabody; VL(13): S66I/R71W/Y92N; VH(7): F67L/N76D/A93T
B23: DART-21 (bispecific antibody)
chain 1: B1 chain 1 with S70I, W76R
chain 2: B1 chain 2 with L186F, D195N
notes: ROR1×CD3 two chain diabody; VL(6): S66I; VH(3): A93T
B24: DART-27 (bispecific antibody)
chain 1: B1 chain 1 with S70I
chain 2: B1 chain 2 with L186F, D195N
notes: ROR1×CD3 two chain diabody; VL(12): S66I R71W; VH(3): A93T
B25: DART-28 (bispecific antibody)
chain 1: B1 chain 1 with S70I, Y97N
chain 2: B1 chain 2 with L186F, D195N
notes: ROR1×CD3 two chain diabody; VL(13): S66I/R71W/Y92N; VH(3): A93T
B26: TRIDENT-C (other)
chain 1: QLVLTQSPSASASLGSSVKLTCTLSSGHKTDTIDWYQQQPGKAPRYLMKLEGSGSYNKGSGVPDRFSGSSSGADWYLTISSLQSEDEADYYCGTDYPGNYLFGGGTQLTVLGGGGSGGGGEVQLVESGGGLVQPGGSLRLSCAASGFTFSTYAMNWVRQAPGKGLEWVGRIRSKYNNYATYYADSVKGRFTISRDDSKNSLYLQMNSLKTEDTAVYYCVRHGNFGNSYVSWFAYWGQGTLVTVSSASTKGEVAACEKEVAALEKEVAALEKEVAALEKGGGDKTHTCPPCPAPEAAGGPSVFLFPPKPKDTLMISRTPEVTCVVVDVSHEDPEVKFNWYVDGVEVHNAKTKPREEQYNSTYRVVSVLTVLHQDWLNGKEYKCKVSNKALPAPIEKTISKAKGQPREPQVYTLPPSREEMTKNQVSLWCLVKGFYPSDIAVEWESNGQPENNYKTTPPVLDSDGSFFLYSKLTVDKSRWQQGNVFSCSVMHEALHNHYTQKSLSLSPGK
chain 2: QAVVTQEPSLTVSPGGTVTLTCRSSTGAVTTSNYANWVQQKPGQAPRGLIGGTNKRAPWTPARFSGSLLGGKAALTITGAQAEDEADYYCALWYSNLWVFGGGTKLTVLGGGGSGGGGQEQLVESGGGLVQPGGSLRLSCAASGFTFSDYYMSWIRQAPGKGLEWVATIYPSSGKTYYADSAKGRLTISSDNAKDSLYLQMNSLRAEDTAVYYCTRDSYADDAALFDIWGQGTTVTVSSASTKGKVAACKEKVAALKEKVAALKEKVAALKE
chain 3: DIQMTQSPSSLSASVGDRVTITCKGSQDINNYLAWYQQKPGKAPKLLIYNTDILHTGVPSRFSGSGSGTDFTFTISSLQPEDIATYYCYQYNNGYTFGCGTKVEIKGGGGSGGGGSGGGGSQVQLVESGGGVVQPGRSLRLSCAASGFTFSDFGMNWVRQAPGKCLEWVALIYYDGSNKFYADSVKGRFTISRDNSKNTLYLQMNSLRAEDTAVYYCAKPHYDGYYHFFDSWGQGTLVTVSSVEPKSADKTHTCPPCPAPEAAGGPSVFLFPPKPKDTLMISRTPEVTCVVVDVSHEDPEVKFNWYVDGVEVHNAKTKPREEQYNSTYRVVSVLTVLHQDWLNGKEYKCKVSNKALPAPIEKTISKAKGQPREPQVYTLPPSREEMTKNQVSLSCAVKGFYPSDIAVEWESNGQPENNYKTTPPVLDSDGSFFLVSKLTVDKSRWQQGNVFSCSVMHEALHNRYTQKSLSLSPGK
notes: anti-ROR1-VL(14) and VH(8)

Where a chain is given by its changes, count along the chain named. Names and notes keep the numbering of the source. Bounds are passed on as bounds.

Usually Kd stands for the equilibrium constant for the complex coming apart.

The target of one test is human ROR1 expressed on the surface of cancer cells (human, UniProt Q01973 30-937). As to the kind of experiment: cell-based or functional assay.
Chain of human ROR1 expressed on the surface of cancer cells (Q01973 30-937): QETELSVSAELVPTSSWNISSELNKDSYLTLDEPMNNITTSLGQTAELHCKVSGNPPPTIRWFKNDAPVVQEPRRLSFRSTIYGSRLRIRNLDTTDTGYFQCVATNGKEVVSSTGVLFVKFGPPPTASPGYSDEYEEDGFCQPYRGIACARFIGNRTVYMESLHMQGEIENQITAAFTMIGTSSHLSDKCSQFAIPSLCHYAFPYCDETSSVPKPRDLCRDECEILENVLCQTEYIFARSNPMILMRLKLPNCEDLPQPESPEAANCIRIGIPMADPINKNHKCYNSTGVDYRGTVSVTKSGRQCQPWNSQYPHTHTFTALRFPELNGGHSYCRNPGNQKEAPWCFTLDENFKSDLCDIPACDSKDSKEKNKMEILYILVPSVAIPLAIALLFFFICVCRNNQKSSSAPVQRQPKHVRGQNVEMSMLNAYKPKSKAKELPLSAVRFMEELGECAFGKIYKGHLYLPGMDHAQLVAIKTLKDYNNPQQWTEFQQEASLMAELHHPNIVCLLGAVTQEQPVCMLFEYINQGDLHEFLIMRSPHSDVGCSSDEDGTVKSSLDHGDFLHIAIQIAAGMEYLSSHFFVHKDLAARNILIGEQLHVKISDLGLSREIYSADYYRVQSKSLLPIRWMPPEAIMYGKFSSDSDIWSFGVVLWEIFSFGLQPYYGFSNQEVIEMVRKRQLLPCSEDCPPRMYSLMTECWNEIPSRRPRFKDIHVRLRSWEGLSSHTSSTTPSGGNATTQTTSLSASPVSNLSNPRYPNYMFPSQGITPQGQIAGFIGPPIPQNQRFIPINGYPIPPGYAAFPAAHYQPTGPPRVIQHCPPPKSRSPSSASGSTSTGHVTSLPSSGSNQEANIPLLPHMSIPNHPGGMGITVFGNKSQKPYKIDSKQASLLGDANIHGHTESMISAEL
Take B1: the “MR(%) (maximum response), redirected cell killing of HBL-2 cells (LDH release)” value stood at 27%; the “MR(%) (maximum response), redirected cell killing of JIMT-1 cells (LDH release)” value worked out at 40%; the “MR(%) (maximum response), redirected cell killing of Jeko-1 cells (LDH release)” value was determined as 38.2%.
Turning to B2, the “MR(%) (maximum response), redirected cell killing of HBL-2 cells (LDH release)” value came to 25.6%; the “MR(%) (maximum response), redirected cell killing of JIMT-1 cells (LDH release)” value stood at 37.3%; the “MR(%) (maximum response), redirected cell killing of Jeko-1 cells (LDH release)” value came out at 36.4%.

In the next test the target is T1, His-tagged soluble human ROR1 (shROR1-His) (human, UniProt Q01973 30-406).
T1 construct: also called ROR1 protein; immobilized ROR1; not shown: His-Tag
T1 sequence (Q01973 30-406): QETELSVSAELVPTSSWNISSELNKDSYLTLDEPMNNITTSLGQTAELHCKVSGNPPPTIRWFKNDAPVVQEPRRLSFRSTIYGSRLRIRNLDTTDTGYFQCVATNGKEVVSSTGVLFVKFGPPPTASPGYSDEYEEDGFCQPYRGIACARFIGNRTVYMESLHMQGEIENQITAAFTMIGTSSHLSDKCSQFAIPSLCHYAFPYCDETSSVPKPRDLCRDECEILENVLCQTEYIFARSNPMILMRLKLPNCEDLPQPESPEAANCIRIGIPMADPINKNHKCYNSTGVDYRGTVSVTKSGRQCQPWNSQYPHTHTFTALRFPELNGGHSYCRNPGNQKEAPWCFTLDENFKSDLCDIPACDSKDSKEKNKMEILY
As to the kind of experiment: SPR (Biacore), diabody captured via anti-E/K-coil, shROR1-His as analyte. How it is done:
The binding kinetics of DART-1 to DART-6, DART-10 to DART-17, DART-20 to DART-33 was investigated using Biacore analysis in which ROR1 protein was passed over immobilized diabodies. Briefly, each diabody construct was captured on immobilized anti-E/K-coil surface and was incubated with shROR1-His at 25 and 100 nM, and the kinetics of binding were determined via Biacore analysis.
For orientation: SPR reads the build-up and loss of mass on a sensor chip optically.
For B3, the Kd is 1.5 nM and the “fold enhancement of binding relative to DART-1” value is over 2 fold.
B4 registered a Kd of 1.2 nM. This counts as single-digit nanomolar.
On the same count and under the same terms, then B5, with 4.3 nM.
In turn, B6 displayed a Kd of 4.5 nM.
Still for that read-out and setting: the result for B7 reads 3.7 nM; that for B8, 1.4 nM.
Still for that read-out and setting: then B1, with 1.2 nM; and B9, with 1.3 nM.
On the same count and under the same terms, the result for B10 reads 3.7 nM.
Consider B11, for which the affinity, expressed as Kd, was 2.7 nM.
The same measure, in the same setting: then B12, with 4 nM.
The same measure, in the same setting: then B13, with 1.3 nM; and B14, with 2.4 nM; and B15, with 1.7 nM.
Still for that read-out and setting: then B16, with 1.3 nM.
For B17, the Kd was determined as 1.2 nM.
The same measure, in the same setting: the result for B18 reads 1.2 nM; that for B19, 6 nM; that for B20, 5.7 nM.
Same read-out and setting: the result for B21 reads 1.3 nM; that for B22, 0.9 nM; that for B23, 4.8 nM.
Same read-out and setting: the result for B24 reads 1.2 nM.
As to B25, the Kd turned out to be 1.5 nM.

A further test has as its target T1, His-tagged soluble human ROR1 …. The test is described as follows: SPR (BIACORE), trivalent binding molecule 6.25 to 100 nM passed over immobilized shROR1-His. How it is done:
The binding kinetics of each of the ROR1×CD3×CD8 trivalent binding molecules to ROR1 was investigated using BIACORE® analysis in which each trivalent binding molecule (6.25 to 100 nM) was passed over immobilized shROR1-His essentially as described above.
As to B26, the Kd amounted to 0.19 nM.

The values above are taken from US20170233472A1 (MacroGenics, published 2017).
